Results reported in PMC3554283 (Diabetes Care, 2013).

How the values were obtained:
[1] = test system: healthy volunteers; test: Eight-hour euglycemic glucose clamp; assay type: in vivo, human; settings: mean ± SD; 0.15 units/kg s.c.; 14 healthy volunteers; 8-h euglycemic clamp
[2] = Serum insulin pharmacokinetics after subcutaneous injection; assay type: in vivo, human; settings: 0.15 units/kg s.c., 14 healthy volunteers

insulin glulisine
onset of action (early T50% GIRmax) [1]: 47 ± 19 min
time to 50% glucose infused [1]: 183 ± 34 min
onset (early t50%) of exposure [2]: 21 min
tmax [2]: 1.33 h
